Target: FSFG6 (a segment of Nsp1FG that contains six repeats of the FxFG-type region) (S. cerevisiae)
Experiment: SPR; XPR36 (BioRad), GLC chip; FG construct conjugated by its C-terminal cysteine to maleimide surface, quenched with beta-mercaptoethanol; analyte in TBT-PVP at 100 μl/min, association 15-120 s, dissociation 10 min, 25°C

Substance: Kap95 (without the GST domain) (from UniProt Q06142 1-861) (natural protein)
- fastest association rate estimated from the kinetic model fits: 3e+06 M⁻¹ s⁻¹

From publication PMC6553764
